Reference: US9102763B2

Biological target: T1, Syndecan-1
T1 sequence (P18827 whole entry, species assumed, looked up): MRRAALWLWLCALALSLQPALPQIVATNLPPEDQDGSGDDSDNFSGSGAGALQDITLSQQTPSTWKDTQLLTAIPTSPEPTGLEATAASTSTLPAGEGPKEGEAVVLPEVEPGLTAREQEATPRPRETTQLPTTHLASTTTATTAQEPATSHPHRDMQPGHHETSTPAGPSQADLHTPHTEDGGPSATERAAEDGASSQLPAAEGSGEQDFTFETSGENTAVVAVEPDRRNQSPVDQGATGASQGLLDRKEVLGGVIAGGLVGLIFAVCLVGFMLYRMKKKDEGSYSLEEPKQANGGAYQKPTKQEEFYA

- minimal therapeutic concentration (β-hexosaminidase secretion, rabbit LGACs): 10 µM
B1: lacritin (free lacritin released from Lac-ELP by thrombin cleavage) (ligand)
chain: MEDASSDSTGADPAQEAGTSKPNEEISGPAEPASPPETTTTAQETSAAAVQGTAKVTSSRQELNPLKSIVEKSILLTEQALAKAGKGMHGGVPGGKQFIENGSEFAQKLLKKFSLLKPWAGLVPR
